The source of these data is patent publication US20160177324A1, “NOVEL PROTEIN AND GENE RELATED TO FLAVONOID O-METHYLTRANSFERASE (FOMT) AND THEIR USES THEREFORE” (INSTITUTE OF BOTANY, THE CHINESE ACADEMY OF SCIENCES, priority 2013, published 2016).

The experiment has as its system Nicotiana tabacum cv.Nc89. Briefly: Flavonoid O-methyltransferase activity in transgenic tobacco. Format: in vivo. From the text:
The full length genes were introduced with a BamHl site and an XhoI site on 5′- and 3′-end by PCR with primers SEQ No. 5 & 6. The double digested fragment of interest and eukaryotic expression vector pBI121 with BamHl site and an XhoI were ligated. Then the appropriate constructs were introduced into Agrobacterium strain EHA105 by electroporation.
Leaf of Nicotiana tabacum cv.Nc89 plant (Donated by Professor Silan Dai, Beijing Forestry University) was disinfected by 75% ethanol for 30 s, followed by 2% sodium hypochlorite for 3 minutes, and then washed with sterile water for three times. The leaf was cut into squares (25 mm^2) A single colony of Agrobacterium strain EHA105 with pBI121-FOMT construct was used to inoculate with 2 mL of YEB medium (per liter: 5 g of beef extract, 1 g of yeast extract, 5 g of sucrose, and 0.5 g of MgSO4.7H2O), supplemented with 50 mg mL^−1 kanamycin and 25 mg mL^−1 Rifampicin. The culture was incubated at 28° C. until OD600 0.6-0.8, and the bacteria were pelleted by centrifugation at 5000 rpm for 5 minutes. The cells were washed by MS liquid medium and resuspended pellets with appropriate volume of MS liquid. The tobacco leaf squares were dipped into the bacteria solution for 8 minutes and cultivated on MS media containing 2.0 mg L^−1 6-benzylaminopurine (6-BA), 0.2 mg L^−1 1-naphthylacetic acid (NAA), and 500 mg L^−1 ceflomine. The explants were transferred to fresh selected medium after two weeks. When the regenerating plantlets grow to 2 cm, move them to MS media containing 0.2 mg L^−1 NAA to induce root. After four weeks, the transgenic tobacco plantlets were transferred to pots and kept in the greenhouse till flowering. The positive transgenic lines were selected by PCR, and transgenic plantlets with empty plasmid were used as control. The anthocyanins in transgenic petals were detected with an HPLC system.
Appropriate amount of sample (petal, fruits) was powdered with mortars and pestles and extracted for the first time with 2 mL 2% (v/v) formic acid methanol solution shaken in a QL-861 vortex (Kylinbell Lab Instruments, Jiangsu, China), sonicated in KQ-500DE ultrasonic cleaner (Ultrasonic instruments, Jiangsu Kunshan, China) at 20° C. for 20 min, centrifuged in SIGMA 3K30 (SIGMA centrifugers, Germany) (12000 rpm, 10 min), and the supernatant was collected. Additional 2 mL and 1 mL extraction solution was supplemented to the residue, and repeated aforesaid operation for the second and third times. All extract was pooled and filtrated through 0.22 μm reinforced nylon membrane filters (Shanghai ANPEL, Shanghai, China) before the HPLC-DAD and HPLC-ESI-MS^n analyses. Three replicates were performed for each sample. […]
HPLC-ESI-MS^n analysis was carried with an Agilent-1100 HPLC system equipped with a UV detector coupled to a LC-MSD Trap VL ion-trap mass spectrometer via an ESI source (Agilent Technologies, Palo Alto, Calif.). […] The MS conditions were listed as follow: negative-ion (NI) mode; capillary voltage of 3.5 kV; a nebulization pressure of 241.3 kPa; and a gas (N2) temperature of 350° C. with flow rate of 6.0 L min^−1 Capillary offset voltage was 77.2 V. MS spectra were recorded over the range from m/z 50-1000.

B1: PsFOMT: flavonoid O-methyltransferase from tree peony Paeonia suffruticosa cv. 'Gunpohden', SEQ ID NO: 3; recombinant MBP fusion protein (protein, listed as Paeonia suffruticosa)
chain: MAESDRKGILKSEALLKYILETSVYPREHEQLKQLRQATVDKYKYWSVMNVPADEGQFLSMLLKIMNAKKTIEVGVFTGYSLLTAALALPTDAKITAIDPDGEAYETGLPFIKKAGVEHKINYIQADAMSVLDDLVTNGKEEGSFDFAFVDADKENYAKYHEPLMKLVKIGGIIGYDNTLWFGSVALSDGDEMKEFQEKGRRIFREFNTFLAADPRIELAHISIGDGLALCRRLY
modifications: MBP fusion
notes: recombinant MBP fusion protein
As to B1, the “flower color compared with control lines” value (transgenic tobacco flowers) was “tend to purplish”. Also, the “methyltransferase function in tobacco petal (new anthocyanin Pn3R detected)” value (transgenic tobacco petals vs empty vector) was “performed as a methyltransferase”. Moreover, the “content of peonidin 3-O-rutinoside (Pn3R) in total anthocyanin (TA)” value (transgenic tobacco petals, 35S:: lines) is recorded as “much higher”.
